Measurements taken from paper PMC9531584 (Nature structural & molecular biology, 2022).

T1: Torpedo californica muscle-type nicotinic acetylcholine receptor δ subunit (Torpedo californica (Tetronarce …, UniProt P02718 22-522))
T1 sequence (looked up): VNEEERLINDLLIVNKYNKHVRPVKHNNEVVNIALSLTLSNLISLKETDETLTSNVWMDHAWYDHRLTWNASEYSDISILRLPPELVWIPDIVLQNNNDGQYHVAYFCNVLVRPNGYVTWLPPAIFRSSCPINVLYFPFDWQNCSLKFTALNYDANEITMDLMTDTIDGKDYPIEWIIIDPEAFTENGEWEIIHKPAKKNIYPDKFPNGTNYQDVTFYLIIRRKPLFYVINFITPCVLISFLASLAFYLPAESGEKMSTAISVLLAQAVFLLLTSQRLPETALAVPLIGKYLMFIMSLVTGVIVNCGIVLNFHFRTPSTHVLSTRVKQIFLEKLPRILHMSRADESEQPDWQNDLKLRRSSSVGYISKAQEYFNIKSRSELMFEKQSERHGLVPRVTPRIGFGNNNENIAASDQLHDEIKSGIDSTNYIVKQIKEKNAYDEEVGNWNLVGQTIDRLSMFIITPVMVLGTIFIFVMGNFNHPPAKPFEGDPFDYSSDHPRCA

B1: Torpedo californica muscle-type nicotinic acetylcholine receptor β subunit (natural protein, UniProt P02712 25-493, looked up)
chain: SVMEDTLLSVLFETYNPKVRPAQTVGDKVTVRVGLTLTNLLILNEKIEEMTTNVFLNLAWTDYRLQWDPAAYEGIKDLRIPSSDVWQPDIVLMNNNDGSFEITLHVNVLVQHTGAVSWQPSAIYRSSCTIKVMYFPFDWQNCTMVFKSYTYDTSEVTLQHALDAKGEREVKEIVINKDAFTENGQWSIEHKPSRKNWRSDDPSYEDVTFYLIIQRKPLFYIVYTIIPCILISILAILVFYLPPDAGEKMSLSISALLAVTVFLLLLADKVPETSLSVPIIIRYLMFIMILVAFSVILSVVVLNLHHRSPNTHTMPNWIRQIFIETLPPFLWIQRPVTTPSPDSKPTIISRANDEYFIRKPAGDFVCPVDNARVAVQPERLFSEMKWHLNGLTQPVTLPQDLKEAVEAIKYIAEQLESASEFDDLKKDWQYVAMVADRLFLYVFFVICSIGTFSIFLDASHNVPPDNPFA

Assays:
[1] = target: T1, Torpedo californica muscle-type …; test: cryo-EM structure
[2] = target: B1; test: cryo-EM structure

| Binder | binding result [1] | binding result [2] |
| --- | --- | --- |
| B1 | binds |  |
| Torpedo californica muscle-type nicotinic acetylcholine receptor α subunit (natural protein, UniProt P02710 25-461, looked up) SEHETRLVANLLENYNKVIRPVEHHTHFVDITVGLQLIQLISVDEVNQIVETNVRLRQQWIDVRLRWNPADYGGIKKIRLPSDDVWLPDLVLYNNADGDFAIVHMTKLLLDYTGKIMWTPPAIFKSYCEIIVTHFPFDQQNCTMKLGIWTYDGTKVSISPESDRPDLSTFMESGEWVMKDYRGWKHWVYYTCCPDTPYLDITYHFIMQRIPLYFVVNVIIPCLLFSFLTGLVFYLPTDSGEKMTLSISVLLSLTVFLLVIVELIPSTSSAVPLIGKYMLFTMIFVISSIIITVVVINTHHRSPSTHTMPQWVRKIFIDTIPNVMFFSTMKRASKEKQENKIFADDIDISDISGKQVTGEVIFQTPLIKNPDVKSAIEGVKYIAEHMKSDEESSNAAEEWKYVAMVIDHILLCVFMLICIIGTVSVFAGRLIELSQEG |  | binds |
